Columns and labels:
Assay in all cases: EMSA; EMSA: 10 mM Tris-HCl pH 7.5, 50 mM NaCl, 0.5% NP-40, 4% glycerol, 1 mM MgCl2, 0.5 mM EDTA, 1 mM DTT, 20 min room temperature, 4 pmol oligo in 20 uL, gel at 4 C; NMR: 50 mM sodium phosphate pH 7.4, 1 mM DTT, 50 uM ZnCl2, 300 uM protein
A3G R215E = A3G R215E (human, UniProt Q9HC16 1-384, R215E); details: protein: recombinant; tags: C-terminal Strep; label: 5' Alexa488; single strand
A3G-S wild type = A3G-S wild type (human, UniProt Q9HC16 1-384); details: protein: recombinant; tags: C-terminal Strep (STP cleaved by TEV); label: 5' Alexa488; single strand
A3G E259Q = A3G E259Q (human, UniProt Q9HC16 1-384, E259Q); details: protein: recombinant; tags: C-terminal Strep; label: 5' Alexa488; single strand
A3G R313E = A3G R313E (human, UniProt Q9HC16 1-384, R313E); details: protein: recombinant; tags: C-terminal Strep; label: 5' Alexa488; single strand
A3G R213E/R215E = A3G R213E/R215E (human, UniProt Q9HC16 1-384, R213E;R215E); details: protein: recombinant; tags: C-terminal Strep; label: 5' Alexa488; single strand
A3G R313E/R320E = A3G R313E/R320E (human, UniProt Q9HC16 1-384, R313E;R320E); details: protein: recombinant; tags: C-terminal Strep; label: 5' Alexa488; single strand
A3G E67Q = A3G E67Q (human, UniProt Q9HC16 1-384, E67Q); details: protein: recombinant; tags: C-terminal Strep; label: 5' Alexa488; single strand
A3G R374E/R376E = A3G R374E/R376E (human, UniProt Q9HC16 1-384, R374E;R376E); details: protein: recombinant; tags: C-terminal Strep; label: 5' Alexa488; single strand

Measured: binding result

Sequence of A3G R313E/R320E (Q9HC16 whole entry R313E/R320E): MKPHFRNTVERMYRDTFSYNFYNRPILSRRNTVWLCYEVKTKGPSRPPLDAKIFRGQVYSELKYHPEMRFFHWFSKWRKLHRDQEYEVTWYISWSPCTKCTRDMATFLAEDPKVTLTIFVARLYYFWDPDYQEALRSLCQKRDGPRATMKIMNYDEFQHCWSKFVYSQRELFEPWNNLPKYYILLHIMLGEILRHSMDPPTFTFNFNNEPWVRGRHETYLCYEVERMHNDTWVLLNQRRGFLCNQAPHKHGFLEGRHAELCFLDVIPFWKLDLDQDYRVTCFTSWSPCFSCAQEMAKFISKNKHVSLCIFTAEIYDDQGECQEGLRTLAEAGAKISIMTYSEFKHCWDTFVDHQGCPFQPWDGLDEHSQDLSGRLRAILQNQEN
Sequence of A3G E67Q (Q9HC16 whole entry E67Q): as the sequence (Q9HC16 whole entry R313E/R320E) above, with E67Q, E313R, E320R counted along it
Sequence of A3G R215E (Q9HC16 whole entry R215E): as the sequence (Q9HC16 whole entry R313E/R320E) above, with R215E, E313R, E320R counted along it
Sequence of A3G R313E (Q9HC16 whole entry R313E): as the sequence (Q9HC16 whole entry R313E/R320E) above, with E320R counted along it
Sequence of A3G R213E/R215E (Q9HC16 whole entry R213E/R215E): as the sequence (Q9HC16 whole entry R313E/R320E) above, with R213E, R215E, E313R, E320R counted along it
Sequence of A3G R374E/R376E (Q9HC16 whole entry R374E/R376E): as the sequence (Q9HC16 whole entry R313E/R320E) above, with E313R, E320R, R374E, R376E counted along it
Sequence of A3G-S wild type (Q9HC16 whole entry): as the sequence (Q9HC16 whole entry R313E/R320E) above, with E313R, E320R counted along it
Sequence of A3G E259Q (Q9HC16 whole entry E259Q): as the sequence (Q9HC16 whole entry R313E/R320E) above, with E259Q, E313R, E320R counted along it

B1: Alexa488 69-mer (ssDNA)
DNA: GAAGAGGAAGGGAAGAAAGAGAAAGGGAGACCCAAAGAGGAAAGGTGAGGAGGTTAATTTGTGTAAATA
binds: all assays above
